In the nanobody polyreactivity screen of Harvey et al. (2022):

Experiment: yeast display, Sf9 membrane polyspecificity reagent, FACS + sequencing; frameworks hold sequencing errors
Summary of the method: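 Nanobodies came from a synthetic yeast display library in Saccharomyces cerevisiae BJ5465, induced with galactose for 36–48 hours and stained for 1 hour at 4 °C with 10% biotinylated, detergent-solubilized Sf9 membrane reagent. Cells were enriched on streptavidin microbeads and then FACS-sorted, with low and high (top ~1%) gates set on anti-HA fluorescence for expression and streptavidin fluorescence for reagent binding. Each polyreactivity label reflects the gate a clone came from. Genes were amplified by colony PCR, sequenced by MiSeq 2 × 250 and filtered by CDR length.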

Row | Sequence | polyreactivity (PSR sort gate)
1 | QVQLVESGGGLVQAGGSLRLSCAASGFTFNFYAMRWYRQAPGKERELVAAITASGVRRYYADSVKGRFTISRDNAKNTVYLQMNSLKPEDTAVYYCNTYMYRNKSGYDYWGQGTQVTVSS | high polyreactivity
2 | QVQLVESGGGLVQAGGSLRLSCAASGRIFAYYAMGWYRQAPGKERELVAAISSGGTTNYADSVKGRFTISRDNAKITVYLQMNSLIPEDTAVYYCNADGWRRSRQYYYWGQGTQVTVSS | low polyreactivity
3 | QVQLVESGGGLVQAGGSLRLSCAASGRIFSTYAMGWYRQAPGKERELVAAINKIGGSTYYADSVKGRFTISRDNAKNTVYLQMNSLIPEDTAVYYCAADAPYYPVRRYYYWGQGTQVTVSS | low polyreactivity
4 | QVQLVESGGGLVQAGGSLRLSCAASGSIFYRNAMGWYRQAPGKERELVAAISSDGSTNYADSVTGRFTISRDNAKNTVYLQMNSLKPEDTAVYYCAAPWTQILDYWGQGTQVTVSS | low polyreactivity
5 | QVQLVESGGGVVQAGGSLRLSCAASGRTFSYYAMGWYRQSPGKERELVATISYSTGNTNYADSVKGRFTISRDNAKNTVYLQMNSLKPEDTAVYYCAADFSPFVGETYWKYDYWGQGTQVTVSS | low polyreactivity
6 | QVQLVESGGGLVQAGGSLRLSCAASGSTFYPNAKGWYRQAPGKDREFVAASSTSAGRTYYADSVKGRFTISRDNAKKTVYLQINSLKPEDTAVYYCNARYWVYYVYEYDSWGQGTQVTVSS | low polyreactivity
7 | QVQLVESGGGLVQAGGSLRLSCAASGRTGVNAMGWYRQAPGKERGMVAAINTSVGRTYYADSVKGRFTISRDNAKNTVYLQMNSLKPEDTAVYYCNTDRLGAARYDYWGQGTQVTVSS | low polyreactivity
8 | QVQLVESGGGLVQAGGSLRLSCAASGYIFYFNAMGWYRQAPGKERELVAAISSRGTGTYADSVKGRFTISRDNAKNTVYLQMNSLKPEDTAVYYCNAYPSIYPGFYKTFFNMDYWGQGTQVTVSS | low polyreactivity
9 | QVQLVESGGGLVQAGGSLRLSCAASGIILAFNAMGWYRQAPGKEREFVASISQGGSSTYYADSVKGRFTISRDYAKNTVYLQMNSLKPEVTAVYFCAARSSRVRSPYQRYYYWGQGTQVTVSS | high polyreactivity
10 | QDQHVESVGGLVQAGGSLRLSIAASVLILWQNAMGWYRQAPGKERELVARITWSGVSTDYADSVKGRFTISRDNAKNTVYFQMNSLKPEDTADYYWAADYNRYSYNYARYSLGQNDYWGQGTQVTVSS | low polyreactivity
11 | QVQLVESGGGLVQAGGSLRLSCAASGRTFTGYAMGWYRQAPGKERELVAAISQGSGSTYYADSVKGRFTISRDNAKNTVYLQMNSLKPEDTAVYYCAAERAYYQTGHYYWGQGTQVTVSS | high polyreactivity
12 | QVQLVESGGGLVQAGGSLRLSCAASGSIFEFNAMGWYRQAHGKERELVSAITWSGTSTYYADSVKGRFTISRDNAKNTVYLQMKSLKPEDTAVYYCGADSTDYFYWGQGTQVTVSS | high polyreactivity
13 | QVQLVESGGGLVQAGGSLRLSCAASGFIFTYYVMGWYRQAPGKERELVATISISDGTTYADSVKGRFTISRDNAKNTVYLQMNSLKPEDTAVYYCAKYFTTYKYDYWGQGTQVTVSS | low polyreactivity
14 | QVQLVESGGGLVQAGGSLRLSCAASGRSFSYNAMGWYRQAPGKERELVASISGNGGRTYYADSVKGRFTISRDNAKNTVYLQMNSLKPEDTAVYYCAARYYSWGGVQYDYWGQGTQVTVSS | high polyreactivity
15 | QVQLVESGGGLVQAGGSLRLTSAASGRIIDQNAMGWYRQAPGKERELVAAITSGGSTNYADSVKGRFTISRDNAKNTVYLQMNSLKPEDTAVYYCNSRDASRRYDYDFLERDSWGQGTQVTVSS | low polyreactivity
16 | QVQLVESGGGLVQAGGSLRLSCAASGFTFYRYVMGWYRKAPGKETELDAAISRRGGSTYYADSVKGRFTISRDNAKNTVYLQMNSLKPEDTAVYYCAADVISRYYVQYIGYYELHYDYWGQGTQVTVSS | high polyreactivity
17 | QVQLVESGGGLVQAGGSLRLSCAASGSIYGSYVMGWYRQAPGKERELVAAINWSGGRTYYADSVKGRFTISRDNAKYTVFLQMNSLKPEDTAVYYCAARATNVYSKMDYWGQGTQVSVSS | high polyreactivity
